The target in experiment [1] is T1, HCV ORFs (Gal4-DB fusions) (Hepatitis C virus genotype 1b, UniProt Q9WMX2).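 Further: yeast two-hybrid screens using HCV genotype 1b proteins fused to Gal4-DB as baits against prey cDNA libraries from human spleen and foetal brain, IMAP1 via transformation and IMAP2 via mating.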
T1 construct: expressed in transfected cells; host or cells: Saccharomyces cerevisiae MAV203 (IMAP1) / AH109 (IMAP2)
Format: binding, HCV genotype 1b, isolate con1. The conditions noted are these: human protein as prey.

Experiment [2] deals with HCV ORFs (Gal4-DB fusions). Format: binding, HCV genotype 1b, isolate con1. To be noted: human protein listed by gene symbol; the value names the HCV protein it interacts with.
A further experiment has as its target T2, HCV proteins (Hepatitis C virus genotype 1b, UniProt Q9WMX2).
T2 construct: expressed in transfected cells
Description: Validation by Y2H pairwise matrices.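 Further: yeast two-hybrid pairwise tests of interactions first found in Y2H screens of HCV bait proteins against human cDNA libraries.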 Format: binding.

[3] abbreviates: validation of interaction with HCV protein NS3.
Setting [4] is: validation of interaction with HCV protein E1.
Setting [5] is: validation of interaction with HCV protein CORE.
Setting [6] is: interaction with HCV protein NS5B.
Where [7] appears, read: validation of interaction with HCV protein E2.
[8] abbreviates: validation of interaction with HCV protein NS2.

Read-outs that look alike come from different tables or passages of the source.

ITGB4: the “IMAP Y2H IMAP1 (number of IST)” value in experiment [1] (HCV protein NS3 as bait) was found to be 7. Moreover, the “Interaction with viral protein” value in experiment [2] is given as “NS3”. The Y2H matrices entry with HCV proteins (setting [3]) was “+”.
For JAG2 the same measures were 1, “NS3” and “+”.
As to JUN, the “IMAP Y2H IMAP1 (number of IST)” value stood at 1 in experiment [1] (HCV protein E1 as bait) and 8 in experiment [1] (HCV protein NS3 as bait). Also, the Y2H matrices result with HCV proteins (setting [4]) and with HCV proteins (setting [3]) was “+” each time.
For the substance KHDRBS1, in experiment [1] (HCV protein NS3 as bait), the “IMAP Y2H IMAP1 (number of IST)” value amounted to 4. Moreover, the “Interaction with viral protein” value in experiment [2] is listed as “NS3”. The Y2H matrices result with HCV proteins (setting [3]) is given as “+”.
For KIAA1549 the same measures were 1, “NS3” and “+”.
For LAMA5 the same measures were 1, “NS3” and “+”.
For LAMB2, in that order: 1, “NS3” and “+”.
Turning to LAMC3, the “IMAP Y2H IMAP1 (number of IST)” value in experiment [1] (HCV protein NS3 as bait) is 1. In experiment [2], the “Interaction with viral protein” value is “NS3”. Besides, in the experiment with HCV proteins (setting [3]), the Y2H matrices entry is given as “+”.
Turning to LRRC7, the “IMAP Y2H IMAP2 (number of IST)” value in experiment [1] (HCV protein NS3 as bait) is 6. For the same substance, the “Interaction with viral protein” value in experiment [2] is “NS3”.
As to LTBP4, the “IMAP Y2H IMAP1 (number of IST)” value in experiment [1] (HCV protein CORE as bait) stood at 4; in experiment [1] (HCV protein NS3 as bait), 2. Moreover, the “Interaction with viral protein” value in experiment [2] was “NS3 and CORE”. Moreover, the Y2H matrices result in the experiment with HCV proteins (setting [5]) and in the experiment with HCV proteins (setting [3]) was “+” throughout.
For the substance MAPK7, the “IMAP Y2H IMAP1 (number of IST)” value in experiment [1] (HCV protein NS3 as bait) is recorded as 4. Besides, the “Interaction with viral protein” value in experiment [2] is on record as “NS3”. The Y2H matrices result with HCV proteins (setting [3]) is given as “+”.
MEGF6: the “IMAP Y2H IMAP1 (number of IST)” value in experiment [1] (HCV protein CORE as bait) stood at 1. Besides, the “Interaction with viral protein” value in experiment [2] was “CORE”. The Y2H matrices result with HCV proteins (setting [5]) is listed as “+”.
Consider MEGF8, for which the “IMAP Y2H IMAP1 (number of IST)” value in experiment [1] (HCV protein NS3 as bait) turned out to be 2. In addition, the “Interaction with viral protein” value in experiment [2] is listed as “NS3”. Also, in the experiment with HCV proteins (setting [3]), the Y2H matrices result is listed as “+”.
For MLLT4 the same measures were 2, “NS3” and “+”.
For MVP, in that order: 1, “NS3” and “+”.
With NCAN, in experiment [1] (HCV protein NS3 as bait), the “IMAP Y2H IMAP1 (number of IST)” value amounted to 1. For the same substance, the “Interaction with viral protein” value in experiment [2] is listed as “NS3”. Moreover, in the experiment with HCV proteins (setting [3]), the Y2H matrices entry was “+”.
Regarding NDC80, in experiment [1] (HCV protein NS3 as bait), the “IMAP Y2H IMAP2 (number of IST)” value is 1. In experiment [2], the “Interaction with viral protein” value is reported as “NS3”.
NELL2: in experiment [1] (HCV protein NS3 as bait), the “IMAP Y2H IMAP1 (number of IST)” value is 11. Also, the “Interaction with viral protein” value in experiment [2] is “NS3”. Also, in the experiment with HCV proteins (setting [3]), the Y2H matrices entry is “+”.
With NR4A1, the “IMAP Y2H IMAP1 (number of IST)” value in experiment [1] (HCV protein CORE as bait) was 31; in experiment [1] (HCV protein E1 as bait), 14; in experiment [1] (HCV protein E2 as bait), 6; in experiment [1] (HCV protein NS2 as bait) it was 5; in experiment [1] (HCV protein NS4A as bait), 3; in experiment [1] (HCV protein NS5B as bait), 8. Also, the Y2H matrices result with HCV proteins (setting [6]), in the experiment with HCV proteins (setting [5]), with HCV proteins (setting [4]), with HCV proteins (setting [7]), with HCV proteins (setting [8]) and in the experiment with HCV proteins (validation of interaction with HCV protein NS4A) was “+” each time.
As for OBSCN, the “IMAP Y2H IMAP1 (number of IST)” value in experiment [1] (HCV protein NS3 as bait) came to 1. For the same substance, in experiment [2], the “Interaction with viral protein” value is recorded as “NS3”.
On to PSMA6, for which the “IMAP Y2H IMAP1 (number of IST)” value in experiment [1] (HCV protein E2 as bait) is 1. The Y2H matrices result with HCV proteins (setting [7]) was “+”.
Regarding ROGDI, the “IMAP Y2H IMAP2 (number of IST)” value in experiment [1] (HCV protein NS3 as bait) was 1. Further, in experiment [2], the “Interaction with viral protein” value was “NS3”.
For the substance SETD2, the “IMAP Y2H IMAP1 (number of IST)” value in experiment [1] (HCV protein CORE as bait) stood at 5; in experiment [1] (HCV protein E1 as bait), 2; in experiment [1] (HCV protein E2 as bait), 1; in experiment [1] (HCV protein NS2 as bait), 1; in experiment [1] (HCV protein NS5B as bait), 3. In addition, the Y2H matrices result in the experiment with HCV proteins (setting [6]), with HCV proteins (setting [5]), with HCV proteins (setting [4]), with HCV proteins (setting [7]) and in the experiment with HCV proteins (setting [8]) was “+” throughout.
For SHARPIN, the “IMAP Y2H IMAP2 (number of IST)” value in experiment [1] (HCV protein NS5A as bait) is on record as 2; in experiment [1] (HCV protein NS5B as bait), 1. In addition, the “Interaction with viral protein” value in experiment [2] was “NS5A”.
For the substance SYNE1, the “IMAP Y2H IMAP2 (number of IST)” value in experiment [1] (HCV protein NS3 as bait) worked out at 4. Moreover, the “Interaction with viral protein” value in experiment [2] is reported as “NS3”.
Take THBS1: in experiment [1] (HCV protein NS5A as bait), the “IMAP Y2H IMAP2 (number of IST)” value is recorded as 7. In addition, in experiment [2], the “Interaction with viral protein” value is “NS5A”.
As to TMSB4X, the “IMAP Y2H IMAP1 (number of IST)” value in experiment [1] (HCV protein E1 as bait) is 1. Further, in the experiment with HCV proteins (setting [4]), the Y2H matrices result was “+”.
For the substance TRIOBP, in experiment [1] (HCV protein NS5A as bait), the “IMAP Y2H IMAP2 (number of IST)” value came out at 2.
Regarding TUBB2C, the “IMAP Y2H IMAP1 (number of IST)” value in experiment [1] (HCV protein NS5B as bait) came out at 1. Further, the Y2H matrices entry in the experiment with HCV proteins (setting [6]) was “+”.
With UBQLN4, in experiment [1] (HCV protein p7 as bait), the “IMAP Y2H IMAP1 (number of IST)” value worked out at 3. Also, in the experiment with HCV proteins (interaction with HCV protein p7), the Y2H matrices result was “+”.

(Values after patent US20110091994A1, “Methods for Screening Compounds for Treating and/or Preventing an Hepatitis C Virus Infection” (priority 2008, published 2011).)
